This test concerns the target acetylcholine receptor. Description: SPR, AchR immobilised on CM5 chip, peptide 10 uM. On the technique in general: Surface plasmon resonance follows binding to a sensor surface in real time, without labels.

As for RTTMRK [6mer-2-652], the Binding affinity (RU) came out at 16 RU.
The figure for KEMIKR [6mer-2-702] is 18 RU; for KCTAKK [6mer-2-676] it is 14 RU.
As to KTENKK [6mer-2-642], the Binding affinity (RU) was determined as 16 RU.
With RYEHRK [6mer-2-634] the figure was 33 RU; with KCAERR [6mer-2-665], 18 RU; with RDKERR [6mer-2-689], 24 RU.
The figure for KAHPKK [6mer-2-662] is 11 RU.
With KNADRR [6mer-2-651] the figure was 21 RU.
For REEFRR [6mer-2-641], the Binding affinity (RU) came to 12 RU.
For the molecule KCCWKK [6mer-2-664], the Binding affinity (RU) worked out at 11 RU.
Regarding KNHGKR [6mer-2-680], the Binding affinity (RU) came out at 15 RU.
The molecule KCAVKK [6mer-2-697] came in with a Binding affinity (RU) of 19 RU.
The figure for KEWWRR [6mer-2-678] is 32 RU.
Regarding RFCNKK [6mer-2-668], the Binding affinity (RU) was 13 RU.
The molecule KADPRR [6mer-2-656] displayed a Binding affinity (RU) of 11 RU.
For RMKWRK [6mer-2-675], the Binding affinity (RU) turned out to be 14 RU.
The molecule KADGRK [6mer-2-687] yielded a Binding affinity (RU) of 16 RU.
Molecule KIWFRR [6mer-2-655] yielded a Binding affinity (RU) of 31 RU.
KIEMKR [6mer-2-653] registered a Binding affinity (RU) of 20 RU.
The figure for RFCGRK [6mer-2-673] is 23 RU; for KPMDRR [6mer-2-666] it is 25 RU.
As to KFAGRR [6mer-2-663], the Binding affinity (RU) was found to be 24 RU.
Take RYSAKK [6mer-2-679]: the Binding affinity (RU) came to 20 RU.
The figure for KNMWRK [6mer-2-669] is 15 RU; for RAAPRR [6mer-2-646] it is 32 RU; for KCEDKK [6mer-2-698] it is 27 RU.
For RMKAKK [6mer-2-661], the Binding affinity (RU) worked out at 29 RU.
The molecule KYAVKR [6mer-2-633] gave a Binding affinity (RU) of 17 RU.
The figure for KFDVRK [6mer-2-649] is 31 RU.
Molecule KDSIRK [6mer-2-694] had a Binding affinity (RU) of 22 RU.
RHKDRK [6mer-2-660] returned a Binding affinity (RU) of 16 RU.
With RENWKK [6mer-2-677] the figure was 28 RU; with RYPDRK [6mer-2-648], 23 RU.
With KCWWRR [6mer-2-695] the figure was 28 RU; with RCWAKR [6mer-2-638], 30 RU; with KTEPKR [6mer-2-647], 19 RU.
The figure for RPMFRK [6mer-2-688] is 13 RU.
In turn, KIPNKR [6mer-2-659] came in with a Binding affinity (RU) of 22 RU.
KHDMRR [6mer-2-667] displayed a Binding affinity (RU) of 25 RU.
With RMPEKR [6mer-2-654], the Binding affinity (RU) came out at 20 RU.
For KKWERK [6mer-2-674], the Binding affinity (RU) turned out to be 26 RU.
In turn, RDWIRR [6mer-2-671] displayed a Binding affinity (RU) of 27 RU.
The figure for KFKKKR [6mer-2-640] is 21 RU; for KFHNRK [6mer-2-685] it is 15 RU.
In the case of KECVRR [6mer-2-635], the Binding affinity (RU) came out at 11 RU.
Consider RPPVRK [6mer-2-637], for which the Binding affinity (RU) amounted to 32 RU.
For the molecule RKHERK [6mer-2-657], the Binding affinity (RU) stood at 32 RU.
With KFTKKK [6mer-2-696] the figure was 20 RU.
RIKVKK [6mer-2-645]: the Binding affinity (RU) was 15 RU.
Turning to KYTNRR [6mer-2-692], the Binding affinity (RU) was found to be 29 RU.
With RNMERR [6mer-2-682] the figure was 33 RU; with KIDDRK [6mer-2-672], 20 RU.
With KHTVKK [6mer-2-639] the figure was 23 RU; with RPWHKK [6mer-2-700], 15 RU; with RYTMKK [6mer-2-684], 14 RU.
With REPNRR [6mer-2-644] the figure was 12 RU; with KTEIRK [6mer-2-683], 33 RU.
As for RKWHKR [6mer-2-670], the Binding affinity (RU) is 33 RU.
The figure for KNAGKR [6mer-2-699] is 23 RU; for KFTMRK [6mer-2-690] it is 13 RU; for KMAPKR [6mer-2-636] it is 21 RU.
For KANPKK [6mer-2-643], the Binding affinity (RU) worked out at 12 RU.
In turn, KYDIKR [6mer-2-632] displayed a Binding affinity (RU) of 12 RU.
On to KTWEKK [6mer-2-686], for which the Binding affinity (RU) is 21 RU.
Regarding RFKARK [6mer-2-650], the Binding affinity (RU) came out at 18 RU.
The figure for RYWVKK [6mer-2-658] is 23 RU; for RHKMRK [6mer-2-691] it is 15 RU; for RDTWRR [6mer-2-681] it is 33 RU.
For the molecule KNTIRR [6mer-2-693], the Binding affinity (RU) stood at 16 RU.
Turning to KTWAKR [6mer-2-701], the Binding affinity (RU) stood at 23 RU.

Source of the values: patent US20250011363A1, “OPTIMIZED SHORTENED PEPTIDE THAT BINDS TO ACETYLCHOLINE RECEPTOR, AND USE THEREOF” (SKINMED CO., LTD., priority 2021, published 2025).
